Laboratory results: patent publication US10500249B2, “Compositions and methods for preventing or treating diseases, conditions, or processes characterized by aberrant fibroblast proliferation and extracellular matrix deposition” (MOERAE MATRIX, INC., priority 2014, dated 2019)

Assays:
Abl (H396P) (h) = Abl (H396P) (h) (Homo sapiens, UniProt P00519, H396P); test: Kinase Profiling Assay; assay type: biochemical; conditions: 100 μM
How it was run: (§1)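 Activity remaining relative to an uninhibited control was determined by scintillation counting of labeled substrate bound to a negatively charged filter. Radiolabeled phosphate came from ATP; the substrate carried positive charge. Duplicate measurements, within a 266-kinase human panel.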

Abl (M351T) (h) = Abl (M351T) (h) (Homo sapiens, UniProt P00519, M351T); test: Kinase Profiling Assay; assay type: biochemical; conditions: 100 μM
How it was run: as §1

CK1γ2 (h) = target: T1, CK1γ2 (h) (Homo sapiens, UniProt P78368); test: Kinase Profiling Assay; assay type: biochemical; conditions: 100 μM
T1 construct: purchased Millipore
How it was run: as §1

CK1γ3 (h) = target: T2, CK1γ3 (h) (Homo sapiens, UniProt Q9Y6M4); test: Kinase Profiling Assay; assay type: biochemical; conditions: 100 μM
T2 construct: purchased Millipore
How it was run: as §1

EGFR(T790M) (h) = target: T3, EGFR(T790M) (h) (Homo sapiens, UniProt P00533, T790M); test: Kinase Profiling Assay; assay type: biochemical; conditions: 100 μM
T3 construct: purchased Millipore
How it was run: as §1

PAK3 (h) = target: T4, PAK3 (h) (Homo sapiens, UniProt O75914); test: Kinase Profiling Assay; assay type: biochemical; conditions: 100 μM
T4 construct: purchased Millipore
How it was run: as §1

JAK3 (h) = target: T5, JAK3 (h) (Homo sapiens, UniProt P52333); test: Kinase Profiling Assay; assay type: biochemical; conditions: 100 μM
T5 construct: purchased Millipore
T5 sequence (P52333 1-1124): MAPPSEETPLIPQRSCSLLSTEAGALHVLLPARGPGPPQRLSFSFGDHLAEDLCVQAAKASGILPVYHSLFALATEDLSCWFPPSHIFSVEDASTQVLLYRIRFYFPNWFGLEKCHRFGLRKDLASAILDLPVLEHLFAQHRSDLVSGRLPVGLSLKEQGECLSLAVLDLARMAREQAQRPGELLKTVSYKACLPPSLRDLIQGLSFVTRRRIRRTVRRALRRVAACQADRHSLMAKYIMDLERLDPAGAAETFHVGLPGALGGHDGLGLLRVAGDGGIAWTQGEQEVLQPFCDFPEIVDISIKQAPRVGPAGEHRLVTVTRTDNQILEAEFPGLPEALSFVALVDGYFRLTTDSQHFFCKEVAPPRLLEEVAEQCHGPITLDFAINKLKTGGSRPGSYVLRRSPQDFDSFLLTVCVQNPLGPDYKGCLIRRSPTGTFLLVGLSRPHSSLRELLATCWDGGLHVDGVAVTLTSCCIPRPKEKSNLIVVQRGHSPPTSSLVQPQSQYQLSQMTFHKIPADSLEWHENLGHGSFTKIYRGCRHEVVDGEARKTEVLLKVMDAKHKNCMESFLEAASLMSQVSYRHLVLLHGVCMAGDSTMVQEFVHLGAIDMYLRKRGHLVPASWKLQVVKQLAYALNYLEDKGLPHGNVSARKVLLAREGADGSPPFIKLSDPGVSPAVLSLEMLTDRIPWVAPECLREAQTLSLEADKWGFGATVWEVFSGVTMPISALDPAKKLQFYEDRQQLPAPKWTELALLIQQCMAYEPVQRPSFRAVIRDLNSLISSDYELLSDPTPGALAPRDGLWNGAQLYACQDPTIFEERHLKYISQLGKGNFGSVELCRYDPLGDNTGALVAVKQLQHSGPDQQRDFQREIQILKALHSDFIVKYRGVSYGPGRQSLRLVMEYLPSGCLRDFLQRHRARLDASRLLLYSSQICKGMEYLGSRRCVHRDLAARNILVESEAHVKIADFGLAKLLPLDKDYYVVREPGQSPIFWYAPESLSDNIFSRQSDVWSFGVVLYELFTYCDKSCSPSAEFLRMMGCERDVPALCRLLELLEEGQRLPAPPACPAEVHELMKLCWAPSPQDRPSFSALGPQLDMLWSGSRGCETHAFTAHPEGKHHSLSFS
How it was run: as §1

MRCKα (h) = target: T6, MRCKα (h) (Homo sapiens, UniProt Q5VT25); test: Kinase Profiling Assay; assay type: biochemical; conditions: 100 μM
T6 construct: purchased Millipore
How it was run: as §1

PAR-1Bα (h) = target: T7, PAR-1Bα (h) (Homo sapiens, UniProt Q7KZI7); test: Kinase Profiling Assay; assay type: biochemical; conditions: 100 μM
T7 construct: purchased Millipore
How it was run: as §1

PDGFRα (D842V) (h) = target: T8, PDGFRα (D842V) (h) (Homo sapiens, UniProt P16234, D842V); test: Kinase Profiling Assay; assay type: biochemical; conditions: 100 μM
T8 construct: purchased Millipore
How it was run: as §1

Snk (h) = Snk (h) (Homo sapiens, UniProt Q9NYY3); test: Kinase Profiling Assay; assay type: biochemical; conditions: 100 μM
How it was run: as §1

c-RAF (h) = target: T9, c-RAF (h) (Homo sapiens, UniProt P04049); test: Kinase Profiling Assay; assay type: biochemical; conditions: 100 μM
T9 construct: purchased Millipore
How it was run: as §1

cKit(V560G) (h) = target: T10, cKit(V560G) (h) (Homo sapiens, UniProt P10721, V560G); test: Kinase Profiling Assay; assay type: biochemical; conditions: 100 μM
T10 construct: purchased Millipore
How it was run: as §1

CK2α2 (h) = target: T11, CK2α2 (h) (Homo sapiens, UniProt P19784); test: Kinase Profiling Assay; assay type: biochemical; conditions: 100 μM
T11 construct: purchased Millipore
How it was run: as §1

GRK5 (h) = target: T12, GRK5 (h) (Homo sapiens, UniProt P34947); test: Kinase Profiling Assay; assay type: biochemical; conditions: 100 μM
T12 construct: purchased Millipore
How it was run: as §1

MAPK1 (h) = MAPK1 (h) (Homo sapiens, UniProt P27361); test: Kinase Profiling Assay; assay type: biochemical; conditions: 100 μM
How it was run: as §1

PAK6 (h) = target: T13, PAK6 (h) (Homo sapiens, UniProt Q9NQU5); test: Kinase Profiling Assay; assay type: biochemical; conditions: 100 μM
T13 construct: purchased Millipore
How it was run: as §1

Tie2(R849W) (h) = Tie2(R849W) (h) (Homo sapiens, UniProt Q02763, R849W); test: Kinase Profiling Assay; assay type: biochemical; conditions: 100 μM
How it was run: as §1

CK1γ1 (h) = target: T14, CK1γ1 (h) (Homo sapiens, UniProt Q9HCP0); test: Kinase Profiling Assay; assay type: biochemical; conditions: 100 μM
T14 construct: purchased Millipore
How it was run: as §1

CLK2 (h) = target: T15, CLK2 (h) (Homo sapiens, UniProt P49760); test: Kinase Profiling Assay; assay type: biochemical; conditions: 100 μM
T15 construct: purchased Millipore
How it was run: as §1

Plk1 (h) = Plk1 (h) (Homo sapiens, UniProt P53350); test: Kinase Profiling Assay; assay type: biochemical; conditions: 100 μM
How it was run: as §1

[1] = system: human fetal lung fibroblasts (IMR-90), fibronectin; test: TGF-β-mediated fibronectin expression; assay type: cell-based; conditions: 1 h pre-treatment, then TGF-β1 (2 ng/ml) 72 h
Protocol: Fibronection was measured as secreted fragments in the conditioned media. Equal amounts (14 μg) of total proteins from the conditioned media were loaded in each lane.

T12 sequence (P34947 whole entry): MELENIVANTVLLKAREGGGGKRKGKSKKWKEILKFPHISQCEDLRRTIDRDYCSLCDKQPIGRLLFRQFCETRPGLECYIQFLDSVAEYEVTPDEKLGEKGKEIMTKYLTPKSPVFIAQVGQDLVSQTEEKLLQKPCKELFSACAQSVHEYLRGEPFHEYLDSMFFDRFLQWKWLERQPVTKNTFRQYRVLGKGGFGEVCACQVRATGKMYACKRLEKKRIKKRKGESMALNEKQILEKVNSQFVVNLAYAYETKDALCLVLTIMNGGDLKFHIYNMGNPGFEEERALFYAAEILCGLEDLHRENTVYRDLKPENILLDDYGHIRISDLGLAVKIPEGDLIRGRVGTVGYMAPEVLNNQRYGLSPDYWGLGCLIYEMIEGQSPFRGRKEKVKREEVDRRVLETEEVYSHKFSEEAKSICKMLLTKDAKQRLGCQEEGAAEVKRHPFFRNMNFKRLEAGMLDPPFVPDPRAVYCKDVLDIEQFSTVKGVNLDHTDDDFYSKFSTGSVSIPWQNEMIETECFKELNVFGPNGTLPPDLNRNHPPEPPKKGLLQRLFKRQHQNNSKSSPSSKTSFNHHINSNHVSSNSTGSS
T2 sequence (Q9Y6M4 whole entry): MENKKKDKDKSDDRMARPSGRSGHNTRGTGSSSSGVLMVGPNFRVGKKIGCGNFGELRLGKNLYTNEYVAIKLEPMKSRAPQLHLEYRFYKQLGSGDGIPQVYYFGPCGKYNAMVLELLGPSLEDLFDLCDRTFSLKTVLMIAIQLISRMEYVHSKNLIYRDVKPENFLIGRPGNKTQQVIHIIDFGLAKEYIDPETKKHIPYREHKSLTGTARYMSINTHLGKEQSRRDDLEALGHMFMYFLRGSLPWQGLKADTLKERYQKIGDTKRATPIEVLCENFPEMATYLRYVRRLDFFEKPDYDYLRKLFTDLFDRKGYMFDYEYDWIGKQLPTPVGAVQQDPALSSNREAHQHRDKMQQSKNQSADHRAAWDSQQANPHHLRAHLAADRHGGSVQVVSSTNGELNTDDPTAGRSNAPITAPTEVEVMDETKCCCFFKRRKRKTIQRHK
T6 sequence (Q5VT25 whole entry): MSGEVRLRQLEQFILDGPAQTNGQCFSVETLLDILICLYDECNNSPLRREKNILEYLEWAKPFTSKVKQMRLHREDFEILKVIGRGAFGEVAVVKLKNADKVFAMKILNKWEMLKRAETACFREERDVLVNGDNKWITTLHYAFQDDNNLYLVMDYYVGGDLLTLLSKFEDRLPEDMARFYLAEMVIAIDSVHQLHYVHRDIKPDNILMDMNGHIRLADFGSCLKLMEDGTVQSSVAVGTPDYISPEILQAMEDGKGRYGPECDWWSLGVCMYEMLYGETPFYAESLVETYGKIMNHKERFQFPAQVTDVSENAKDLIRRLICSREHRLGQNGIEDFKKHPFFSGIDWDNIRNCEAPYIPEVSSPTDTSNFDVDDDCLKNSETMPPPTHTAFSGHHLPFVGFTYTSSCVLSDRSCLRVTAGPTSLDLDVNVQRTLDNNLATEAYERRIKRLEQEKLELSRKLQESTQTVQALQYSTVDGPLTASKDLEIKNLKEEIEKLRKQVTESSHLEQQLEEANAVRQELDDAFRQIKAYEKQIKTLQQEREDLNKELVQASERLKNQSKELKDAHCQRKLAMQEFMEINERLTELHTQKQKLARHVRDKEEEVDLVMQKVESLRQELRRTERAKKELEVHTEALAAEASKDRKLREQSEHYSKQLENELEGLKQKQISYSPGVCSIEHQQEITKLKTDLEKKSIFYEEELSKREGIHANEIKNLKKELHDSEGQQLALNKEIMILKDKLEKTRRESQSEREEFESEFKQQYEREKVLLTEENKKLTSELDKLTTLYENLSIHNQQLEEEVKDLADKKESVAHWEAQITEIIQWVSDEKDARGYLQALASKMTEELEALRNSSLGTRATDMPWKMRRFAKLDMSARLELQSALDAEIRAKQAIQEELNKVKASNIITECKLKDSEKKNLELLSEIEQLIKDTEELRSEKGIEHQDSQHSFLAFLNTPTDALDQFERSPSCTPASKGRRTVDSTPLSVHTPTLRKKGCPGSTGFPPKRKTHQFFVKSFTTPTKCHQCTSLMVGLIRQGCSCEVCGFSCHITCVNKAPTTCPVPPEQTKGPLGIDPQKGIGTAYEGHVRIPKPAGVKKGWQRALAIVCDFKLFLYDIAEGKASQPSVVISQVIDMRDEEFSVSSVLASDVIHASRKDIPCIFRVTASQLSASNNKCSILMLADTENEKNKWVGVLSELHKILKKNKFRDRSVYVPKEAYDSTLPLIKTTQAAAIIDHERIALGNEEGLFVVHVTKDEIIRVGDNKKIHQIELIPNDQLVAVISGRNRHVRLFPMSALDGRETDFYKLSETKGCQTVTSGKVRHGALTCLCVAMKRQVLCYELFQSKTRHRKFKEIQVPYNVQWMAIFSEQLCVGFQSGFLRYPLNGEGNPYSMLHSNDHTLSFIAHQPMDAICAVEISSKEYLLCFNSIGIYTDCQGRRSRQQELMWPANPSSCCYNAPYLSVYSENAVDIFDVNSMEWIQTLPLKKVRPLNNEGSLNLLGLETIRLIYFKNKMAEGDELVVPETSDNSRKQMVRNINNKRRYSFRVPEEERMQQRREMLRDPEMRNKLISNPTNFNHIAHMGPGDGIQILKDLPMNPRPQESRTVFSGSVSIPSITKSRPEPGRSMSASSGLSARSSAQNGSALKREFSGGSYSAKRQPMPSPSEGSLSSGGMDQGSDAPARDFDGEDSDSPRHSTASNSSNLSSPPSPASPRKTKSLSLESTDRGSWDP
Sequence of MAPK1 (h) (P27361 whole entry): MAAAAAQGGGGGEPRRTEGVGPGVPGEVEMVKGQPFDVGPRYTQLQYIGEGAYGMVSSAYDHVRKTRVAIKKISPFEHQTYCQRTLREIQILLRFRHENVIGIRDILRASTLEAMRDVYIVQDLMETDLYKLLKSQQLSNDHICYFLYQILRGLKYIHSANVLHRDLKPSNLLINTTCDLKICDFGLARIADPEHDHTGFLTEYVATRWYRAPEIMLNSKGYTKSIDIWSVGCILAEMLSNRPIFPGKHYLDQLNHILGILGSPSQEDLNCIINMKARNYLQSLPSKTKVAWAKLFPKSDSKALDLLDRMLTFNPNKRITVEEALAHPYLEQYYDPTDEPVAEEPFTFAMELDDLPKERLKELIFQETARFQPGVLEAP
T8 sequence (P16234 24-1089 D842V): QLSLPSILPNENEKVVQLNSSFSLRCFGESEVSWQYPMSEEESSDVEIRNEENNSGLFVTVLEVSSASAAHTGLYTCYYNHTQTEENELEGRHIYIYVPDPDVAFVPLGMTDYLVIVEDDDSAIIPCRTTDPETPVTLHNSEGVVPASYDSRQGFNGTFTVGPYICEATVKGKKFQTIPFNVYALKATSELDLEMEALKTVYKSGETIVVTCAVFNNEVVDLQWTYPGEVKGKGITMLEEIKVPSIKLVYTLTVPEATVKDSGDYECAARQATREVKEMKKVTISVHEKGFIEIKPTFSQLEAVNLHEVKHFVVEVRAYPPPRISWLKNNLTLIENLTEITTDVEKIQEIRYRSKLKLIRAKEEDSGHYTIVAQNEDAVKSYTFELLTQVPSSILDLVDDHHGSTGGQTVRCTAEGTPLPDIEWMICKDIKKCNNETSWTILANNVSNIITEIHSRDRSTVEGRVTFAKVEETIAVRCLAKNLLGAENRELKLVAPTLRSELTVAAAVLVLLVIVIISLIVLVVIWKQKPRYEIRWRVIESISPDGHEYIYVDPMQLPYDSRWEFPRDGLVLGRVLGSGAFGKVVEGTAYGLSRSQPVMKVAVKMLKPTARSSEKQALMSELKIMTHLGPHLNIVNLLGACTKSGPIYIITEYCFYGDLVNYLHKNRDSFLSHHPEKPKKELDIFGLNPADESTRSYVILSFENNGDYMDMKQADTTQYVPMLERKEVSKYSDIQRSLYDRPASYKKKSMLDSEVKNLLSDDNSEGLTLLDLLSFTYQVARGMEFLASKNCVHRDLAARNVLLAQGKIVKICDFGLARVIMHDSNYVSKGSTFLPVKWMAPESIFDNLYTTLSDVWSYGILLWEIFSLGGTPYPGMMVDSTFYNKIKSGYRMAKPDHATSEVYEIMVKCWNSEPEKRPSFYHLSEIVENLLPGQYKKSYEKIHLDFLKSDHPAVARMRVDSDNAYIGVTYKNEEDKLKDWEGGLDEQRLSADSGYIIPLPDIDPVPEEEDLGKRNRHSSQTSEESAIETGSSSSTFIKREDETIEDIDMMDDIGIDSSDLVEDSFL
T4 sequence (O75914 whole entry): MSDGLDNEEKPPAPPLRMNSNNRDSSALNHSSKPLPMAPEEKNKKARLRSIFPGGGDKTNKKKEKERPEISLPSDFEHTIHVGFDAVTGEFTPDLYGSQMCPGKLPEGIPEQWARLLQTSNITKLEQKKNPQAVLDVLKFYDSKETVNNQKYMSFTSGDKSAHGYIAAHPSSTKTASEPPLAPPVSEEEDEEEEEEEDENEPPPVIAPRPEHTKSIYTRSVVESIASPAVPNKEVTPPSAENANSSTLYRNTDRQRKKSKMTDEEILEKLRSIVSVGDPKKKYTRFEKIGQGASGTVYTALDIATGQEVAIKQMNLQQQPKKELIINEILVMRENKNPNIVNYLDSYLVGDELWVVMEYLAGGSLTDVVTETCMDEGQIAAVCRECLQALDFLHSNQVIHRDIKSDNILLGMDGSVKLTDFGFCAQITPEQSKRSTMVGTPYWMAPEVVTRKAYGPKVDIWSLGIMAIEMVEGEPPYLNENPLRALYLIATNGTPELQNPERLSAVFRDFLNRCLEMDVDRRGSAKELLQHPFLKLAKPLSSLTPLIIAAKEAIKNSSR

Sequence: FAKLAARLYRKALARQLGVAA [MMI-0300]
- % activity (Abl (H396P) (h)): 101%
- % activity (Abl (M351T) (h)): 90%
- % activity (CK1γ2 (h)): 123%
- % activity (CK1γ3 (h)): 125%
- % activity (EGFR(T790M) (h)): 100%
- % activity (PAK3 (h)): 140%

Sequence: HRRIKAWLKKIKALARQLGVAA (Mammalian) [MMI-0500]
- % activity (Abl (H396P) (h)): 51%
- % activity (Abl (M351T) (h)): 61%
- % activity (EGFR(T790M) (h)): 70%
- % activity (JAK3 (h)): 95%
- % activity (MRCKα (h)): 5%
- % activity (PAR-1Bα (h)): 97%
- % activity (PDGFRα (D842V) (h)): 170%
- % activity (Snk (h)): 122%
- % activity (c-RAF (h)): 19%
- % activity (cKit(V560G) (h)): 198%

Sequence: KAFAKLAARLYRKALARQLGVAA [MMI-0400]
- % activity (CK2α2 (h)): 96%
- % activity (GRK5 (h)): 131%
- % activity (JAK3 (h)): 122%
- % activity (MAPK1 (h)): 100%
- % activity (MRCKα (h)): 97%
- % activity (PAK6 (h)): 100%
- % activity (PDGFRα (D842V) (h)): 118%
- % activity (Snk (h)): 131%
- % activity (Tie2(R849W) (h)): 108%
- % activity (cKit(V560G) (h)): 124%

Sequence: YARAAARQARAKALNRQLGVA (Mammalian) [MMI-0200]
- % activity (CK1γ1 (h)): 98%
- % activity (CK1γ3 (h)): 96%
- % activity (CK2α2 (h)): 88%
- % activity (CLK2 (h)): 97%
- % activity (GRK5 (h)): 135%
- % activity (MAPK1 (h)): 97%
- % activity (PAK3 (h)): 50%
- % activity (PAR-1Bα (h)): 110%
- % activity (Plk1 (h)): 128%
- % activity (Tie2(R849W) (h)): 89%
- protein level of fibronectin (secreted fragments in conditioned media) [1]: no changes in the protein level
